In publication PMC6695518:
pKd: −log10 of the molar value.

Assays:
[1] = test system: TbMex67;TbMtr2 (Trypanosoma brucei;Trypanosoma brucei); assay: filter binding; settings: TbMex67 and TbMtr2 preincubated together; Kd in total TbMex67; 10 mM Tris-HCl pH 7.4, 100 mM NaCl, 1 mM EDTA, 100 ug/ml BSA, 0.05 nM RNA, 0-200 nM protein, 30 min, room temperature; RNA preheated 55 C 10 min then ice
[2] = test system: TbMex67 (Trypanosoma brucei); assay: filter binding; settings: TbMex67 alone; 10 mM Tris-HCl pH 7.4, 100 mM NaCl, 1 mM EDTA, 100 ug/ml BSA, 0.05 nM RNA, 0-200 nM protein, 30 min, room temperature; RNA preheated 55 C 10 min then ice
P34/P37, endogenous [3] = assay: co-IP; in vivo immune capture as above, with RNase A (50 ug) added to the whole-cell extract; Western blot for TbMex67; input set at 1.0
[4] = target: ribosomal protein L5, endogenous (Trypanosoma brucei brucei strain 427 (endogenous in procyclic cells)); assay: as above
P34/P37, endogenous [5] = assay: co-IP; in vivo immune capture: 100 ug procyclic whole-cell extract with anti-P34/P37 or anti-L5 cross-linked protein A Dynabeads, PBS with 10 mg/ml BSA, 1 h at 4°C, without RNase A; Western blot for TbMex67; input set at 1.0
[6] = target: ribosomal protein L5, endogenous (Trypanosoma brucei brucei strain 427 (endogenous in procyclic cells)); assay: as above
[7] = target: recombinant His-tagged L5 (Trypanosoma brucei); assay: co-IP; recombinant immune capture as above, with in vitro-transcribed 5S rRNA added before the proteins at an equal molar ratio; Western blot
[8] = target: recombinant His-tagged P34 (Trypanosoma brucei); assay: as above

Substance: 5S rRNA
- pKd [1]: 8.00
- pKd [2]: 7.39

Substance: Trypanosoma brucei Mex67 (TbMex67), endogenous (natural protein)
- relative amount of TbMex67 in the pellet, with RNase A (relative to input set at 1.0) (P34/P37, endogenous [3]): 0.53
- amount of TbMex67 in the pellet, with RNase A (relative to input set at 1.0) [4]: 0.8
- relative total amount of TbMex67 in the pellet fraction (relative to input set at 1.0) (P34/P37, endogenous [5]): 0.35
- fraction of the total amount of TbMex67 associated with L5 (relative to input set at 1.0) [6]: 0.43

Substance: recombinant His-tagged TbMex67 (natural protein)
- ratio of TbMex67 in the pellet with 5S rRNA to without [7]: 0.94
- ratio of TbMex67 in the pellet with 5S rRNA to without [8]: 0.94
